From patent US20130236470A1 come the findings set out here.

In assay [1] the target is HLA-DR expressed by L428 cells (human). The assay can be described thus: flow cytometry on L428 cells, antibody 1.95 ng/mL. A general note: Flow cytometry measures light scatter and fluorescence of single cells or particles in a stream.
Assay [2] has the same target. The assay can be described thus: flow cytometry on L428 cells, antibody 250.0 ng/mL.
For assay [3] the target is unchanged. The assay can be described thus: flow cytometry on L428 cells, antibody 125.0 ng/mL.
The target is the same in assay [4]. Put plainly: flow cytometry on L428 cells, antibody 62.5 ng/mL.
For assay [5] the target is unchanged. The assay can be described thus: flow cytometry on L428 cells, antibody 0.0 ng/mL (background).
The target is the same in assay [6]. The assay can be described thus: flow cytometry on L428 cells, antibody 0.98 ng/mL.
The target is the same in assay [7]. Put plainly: flow cytometry on L428 cells, antibody 15.6 ng/mL.
Assay [8] has the same target. Put plainly: flow cytometry on L428 cells, antibody 7.8 ng/mL.
Assay [9] has the same target. Put plainly: flow cytometry on L428 cells, antibody 3.9 ng/mL.
Assay [10] has the same target. The assay can be described thus: flow cytometry on L428 cells, antibody 31.2 ng/mL.

Regarding “commercially available antibody (clone name: LN3) known to bind to HLA-DR”, the Ability to bind (average strength) is 230 in assay [1]; 3270 in assay [2]; 2420 in assay [3]; 1610 in [4]; 129 in [5]; 181 in assay [6]. Also, the Ability to bind (average strength) was 694 in [7], 430 in assay [8], 339 in assay [9] and 928 in assay [10].
